What was measured:
[1] = biological target: Sbi-E (amino acids 28–266) (Staphylococcus aureus (entry printed for strain Newman)) (UniProt A6QJQ7)
[2] = biological target: Sbi-III-IV (amino acids 150–266) (Staphylococcus aureus (entry printed for strain Newman)) (UniProt A6QJQ7)

complement Factor H (from UniProt P08603 19-1231) (natural protein)
inhibition of alternative pathway-mediated lyses of rabbit erythrocytes by human serum, increasing amounts of Sbi-E [1]: 600 ng
inhibition of alternative pathway-mediated lyses of rabbit erythrocytes by human serum, increasing amounts of Sbi-III/IV [2]: 600 ng

Reference: publication PMC2602735
